Measured values from PMC7715031.

Target: VISTA-Fc human recombinant protein (human), Q9H7M9
Assay: synchrotron radiation circular dichroism (SRCD) titration; fixed concentration of VISTA-Fc (or human Ig-Fc) and increasing concentrations of galectin-9, in solution; 23°C
Details: remark: other sources report otherwise

Kd: 18 nM
B1: human recombinant galectin-9, O00182 1-355 (ligand)
chain: MAFSGSQAPYLSPAVPFSGTIQGGLQDGLQITVNGTVLSSSGTRFAVNFQTGFSGNDIAFHFNPRFEDGGYVVCNTRQNGSWGPEERKTHMPFQKGMPFDLCFLVQSSDFKVMVNGILFVQYFHRVPFHRVDTISVNGSVQLSYISFQNPRTVPVQPAFSTVPFSQPVCFPPRPRGRRQKPPGVWPANPAPITQTVIHTVQSAPGQMFSTPAIPPMMYPHPAYPMPFITTILGGLYPSKSILLSGTVLPSAQRFHINLCSGNHIAFHLNPRFDENAVVRNTQIDNSWGSEERSLPRKMPFVRGQSFSVWILCEAHCLKVAVDGQHLFEYYHRLRNLPTINRLEVGGDIQLTHVQT
